In the nanobody polyreactivity screen of Harvey et al. (2022):

Assay: yeast display, Sf9 membrane polyspecificity reagent, FACS + sequencing; frameworks hold sequencing errors
Outline: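 Using colony PCR, genes from sorted yeast display clones were amplified, then sequenced on MiSeq at 2 × 250 and filtered by CDR length. The clones had been stained with 10% biotinylated, detergent-solubilized Sf9 membrane reagent for 1 hour at 4 °C and sorted by FACS into low and high (top ~1%) gates on anti-HA and streptavidin fluorescence. Polyreactivity labels come from the gate of origin.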

## QVQLVESGGGLVQAGGSLRLSCAASGIIFGGYAMGWYRQAPGKERELVARITSGGSTNYADSVKGRFTISRDNAKNTVYLQMNSLKPEDTAVYYCAARSFWKWGYYYWGQGTQVTVSS
  polyreactivity (PSR sort gate): high polyreactivity

## QVQLVESGGGLVQAGGSLRLSCAASGIIFGGYAMGWYRQAPGKERELVARITSGGSTNYADSVKGRFTISRDNAKNTVYLQMNSLKPEDTAVYYCNARGGWSWRFYYWGQGTQVTVSS
  polyreactivity (PSR sort gate): high polyreactivity

## QVQLVESGGGLVQAGGSLRLSCAASGIIFGGYDMGWYRQAPGKERELVAGIRSGGSTYYADSVKGRFTISRDNAKNTVYLQMNSLKPEDTAVYYCAADSYTEVDYWGQGSQVTVSS
  polyreactivity (PSR sort gate): low polyreactivity

## QVQLVESGGGLVQAGGSLRLSCAASGIIFGGYTMGWSRQAPGKERELVAAISWSGVGTYYADSVKGRFTISRDNAKNTVYLQMNSLKPEDTAVYYCAAWAYYSDDDEYWGQGTQVTVSS
  polyreactivity (PSR sort gate): high polyreactivity

## QVQLVESGGGLVQAGGSLRLSCAASGIIFGHYDMGWYRQAPGKERELVAAITFTGDSTYYADSVKGRFTISRDNAKNTVYLQMNSLKPEDTAVYYCAAETPVPWGSWGYDYWGQGTQVTVSS
  polyreactivity (PSR sort gate): low polyreactivity

## QVQLVESGGGLVQAGGSLRLSCAASGIIFGKNAMGWYRQAPGKERELVAAISSSGGSTYYADSVKGRFTISRDNAKNTVYLQMNSLKPEDTAVYYCATERGSRRSGSRMDYWGQGTQVTVSS
  polyreactivity (PSR sort gate): high polyreactivity

## QVQLVESGGGLVQAGGSLRLSCAASGIIFGKYAMGGYRQAPGKERELVAAISSSGGRTYYADSGKGRFTISRDNAKNNVYLQMNSLKPEDTAVYYCAAVPGPGYYHYGYWGQGTQVTVSS
  polyreactivity (PSR sort gate): high polyreactivity

## QVQLVESGGGLVQAGGSLRLSCAASGIIFGQNAMGWSRQSPGKESEVVAAITISGGSTYYADSVKGRFTISRDNAKNTVYLQMNSLKPEDTAVYYCAARRVTWKVIARGYRYGYWGQGTQVTVSS
  polyreactivity (PSR sort gate): low polyreactivity

## QVQLVESGGGLVQAGGSLRLSCAASGIIFGRYAMGWYRQAPGKERELVAAISARGGSTYYADSVKGRFTISRDNAKNTVYLHMNSLKPEDTAVYYCAARAVYTQKRYDSWGQGTQVTVSS
  polyreactivity (PSR sort gate): high polyreactivity

## QVQLVESGGGLVQAGGSLRLSCAASGIIFGRYAMGWYRQAPGKERELVAVISRSGGSTYYADSVKGRFTISRDNAKNTVYLQMNSLKPEDTAVYYCAARYTPTYNAGLDYWGQGTQVTVSS
  polyreactivity (PSR sort gate): high polyreactivity

## QVQLVESGGGLVQAGGSLRLSCAASGIIFGRYDMGWYRQAPGKERELVAAITWSGGTTYYADSVKGRFTISRDNAKNTVYLQMNSLKPADTAVYYCNAVGRYSEDGYWGQGTQVTVSS
  polyreactivity (PSR sort gate): high polyreactivity

## QVQLVESGGGLVQAGGSLRLSCAASGIIFGSYAMGWYRQAPGKERELVAGISKIGGRTYYADSVKGRFTISRDNAKNTVYLQMNSLKPEDTAVYYCNKVRTRERTDYDYWGQGTQVTVSS
  polyreactivity (PSR sort gate): low polyreactivity

## QVQLVESGGGLVQAGGSLRLSCAASGIIFGSYAMGWYRQAPGKERELVAGISRRGDSTYYADSVKGRFTISRDNAKNTVYLQMNSLNPEDTAVYYCAADRYLYFYWWPHVGGSPTYGYWGQGTQVTVSS
  polyreactivity (PSR sort gate): high polyreactivity

## QVQLVESGGGLVQAGGSLRLSCAASGIIFGTYVMGWYRQAPGKERELVAAINRSGGNTYYADSVKGRFTISRDNEKNTVYLQMNSLKPEDTAVYYCAAEEAYRSRRGGFDYWGQGTQVTVSS
  polyreactivity (PSR sort gate): high polyreactivity

## QVQLVESGGGLVQAGGSLRLSCAASGIIFGYYAMGWYRQAPGKERELVAAINQDGSSTYYADSVKGRFTISRDNAKNTVYFQMNSLKPEDTAVYYCNARGVPRQDARMGYWGQGTQVTVSS
  polyreactivity (PSR sort gate): low polyreactivity

## QVQLVESGGGLVQAGGSLRLSCAASGIIFGYYAMGWYRQAPGKERELVAAISRRGGSTYYADSVKGRFTISRDNAKNTVYLQMNSLKPEDTAVYYCAAVELRLSTPDMESWGQGTQVTVSS
  polyreactivity (PSR sort gate): high polyreactivity

## QVQLVESGGGLVQAGGSLRLSCAASGIIFGYYAMGWYRQAPGKERELVAAITSGTSTYYADSVKGRFTISRDNAKNTVYLQMNSLKPEDTAVYYCNIVRRYGDEDSWGQGTQVTVSS
  polyreactivity (PSR sort gate): high polyreactivity

## QVQLVESGGGLVQAGGSLRLSCAASGIIFGYYAMGWYRQAPGKERELVAGITYRTGSTYYADSVKGRFTISRDNAKNTVYLQMNFLKPEDTAVYYCAATQYKRKYSSWYYYWGQGTQVTVSS
  polyreactivity (PSR sort gate): high polyreactivity

## QVQLVESGGGLVQAGGSLRLSCAASGIIFHIYAMGWYRQAPGTERELVAAISTGSSTYYADSVKGRFTISRDNAKNTVYLQMNSLKPEDTAVYYCNAVSRYLWVKGFDYWGQGTQVTVSS
  polyreactivity (PSR sort gate): low polyreactivity

## QVQLVESGGGLVQAGGSLRLSCAASGIIFHYYAMGWYRQAPGKEREFVASISFSGSSTYYADSVKGRFTISRDNAKNTVYLQMNSLKPEDTAVYYCAARYLYGPKYYYWGQGTQVTVSS
  polyreactivity (PSR sort gate): high polyreactivity

## QVQLVESGGGLVQAGGSLRLSCAASGIIFHYYAMGWYRQAPGKERELVAAISGSGGSTYYADSVKGRFTISRDNAKNTVYLQMNSLKPEDTAVYYCAAKLWGGGGYWGQGTQVTVSS
  polyreactivity (PSR sort gate): high polyreactivity

## QVQLVESGGGLVQAGGSLRLSCAASGIIFHYYAMGWYRQAPGKERELVATISWDGGNTYYADSVKGRFTISRDNAKNSVYLKMNSLKPEDTAVYYCNVYDKAPAYDYWGQGTQVTVSS
  polyreactivity (PSR sort gate): low polyreactivity

## QVQLVESGGGLVQAGGSLRLSCAASGIIFIFYDMGWYRQAPGKERELVATITSGTNTYADSVKGRFTISRDNAKNTVFLQMNSLKPEDTGVYYCAAGFSPASQLDYWGQGSQVTVSS
  polyreactivity (PSR sort gate): low polyreactivity

## QVQLVESGGGLVQAGGSLRLSCAASGIIFIKYSMGWYRQAPGKERELVAAITSGGSTHYADSVKGRFTISRDNAKNTVYLQMNSLKPEDTAVYYCYADILRHVAYFKDRYQAGSYWGQGTQVTVSS
  polyreactivity (PSR sort gate): low polyreactivity

## QVQLVESGGGLVQAGGSLRLSCAASGIIFIVNAMGWYRQAPGKERELVATISSSGDITRYADSVKGRFTISRDNAKYTVYLQMNSLKPEDTAVYYCAARLWTGYWGTAHPRYDYWGQGTQVTVSS
  polyreactivity (PSR sort gate): high polyreactivity

## QVQLVESGGGLVQAGGSLRLSCAASGIIFIYYTMGWYRQAPGTDRELVAVITTSGDGTYYADSVKGRFTISRDNAKNTGYLQMNSLKPEDTSVYYCAASYSTWVSTRNDYWGQGTQVTVSS
  polyreactivity (PSR sort gate): low polyreactivity

## QVQLVESGGGLVQAGGSLRLSCAASGIIFKDYAMGWYRQAPGKERELVAAISRGGSTYYADSVKGRFTISRDNAKNTVYLQMNSLKPEDTAVYYCAAAYTAPYYRFGYWGQGTQVTVSS
  polyreactivity (PSR sort gate): high polyreactivity

## QVQLVESGGGLVQAGGSLRLSCAASGIIFKRYTMGWYRQAPGKERELVAAITNRGGTYYADSVKGRFTISRDNAKNTVYLQMNSLKPEDTAVYYCAARYYWIDFKFGGPRDYWGQGTQVTVSS
  polyreactivity (PSR sort gate): high polyreactivity

## QVQLVESGGGLVQAGGSLRLSCAASGIIFLDNARGWYRQAPGKERELVAAYADSVKGRFTISRDNAKNTVYLQMNSLKPEDTAVYYCNAGWFRNYGFSIVTYDYWGHGTQVTVSS
  polyreactivity (PSR sort gate): low polyreactivity

## QVQLVESGGGLVQAGGSLRLSCAASGIIFLHYAMGWYRQAPGKEREFVAAISWSGGSTHYADSVKGRFTISRDNAKNTVYLQMNSLKPEDTAVYYCAAYTFYSYDYWGQGTQVTVSS
  polyreactivity (PSR sort gate): high polyreactivity

## QVQLVESGGGLVQAGGSLRLSCAASGIIFNTYAMGWYRQAPGKERELVAAISSSGGRTYYADSVKGRFTISRDHAKNTVYLQMNSLTPEDTAVYNCNKVQNRGPRTNARKFDYWGQGTQVTVSS
  polyreactivity (PSR sort gate): high polyreactivity

## QVQLVESGGGLVQAGGSLRLSCAASGIIFPFYAMGWYRQAPGKERELVAAITSGDDTYYADSVKGRFTISRDNAKNTVYLQMNSLKPEDTAVYYCNKRLYIAGYWPQLYYIMDYWGQGTQVTVSS
  polyreactivity (PSR sort gate): low polyreactivity

## QVQLVESGGGLVQAGGSLRLSCAASGIIFPFYAMGWYRQAPGKERELVAAITSGDDTYYADSVKGRFTISRDNAKNTVYLQMNSLKPEVTAVYYCNKRLYIAGYWPQLYYIMDYWGQGTQVTVSS
  polyreactivity (PSR sort gate): low polyreactivity

## QVQLVESGGGLVQAGGSLRLSCAASGIIFPINAMGWYRPAPGKERELVAGIDESGGGTYYADSVKGRFTISRDNAKNTLYLQMNSLKPEDTAVYYCAAVTLAPRAYDYWGQGTEVTVSS
  polyreactivity (PSR sort gate): low polyreactivity

## QVQLVESGGGLVQAGGSLRLSCAASGIIFPVYDMGWYRQAPGKERELVASITDSGGSTSYADSVKGRFTISRDNAKNTVYLQMNSLKPEDTAVYYCAVTDSDTNYYGYLSYDYWGQGTQVTVSS
  polyreactivity (PSR sort gate): low polyreactivity

## QVQLVESGGGLVQAGGSLRLSCAASGIIFPYSAMGWYRQAPGKERELVAAITSIDASTYYADSVKRRFTISRDNAKNTVYLHMNSLKPEDTAVYYCNATVFNLVLEYNYWGQGTQVTVSS
  polyreactivity (PSR sort gate): low polyreactivity

## QVQLVESGGGLVQAGGSLRLSCAASGIIFQKYAMGWYRQEPGKERELVDAITRRGGSTYYADSVKGRFTISRDNAKNTVYLQMNSLKPEDTAVYYCAVQLRRHVDMDYWGQGTQVTVSS
  polyreactivity (PSR sort gate): high polyreactivity

## QVQLVESGGGLVQAGGSLRLSCAASGIIFQNYDMGWYRQAPGKARELVAAITGSGGSTYYADSVKGRFTISRDNAKNTVYLQMNSLKPEDTAVYYCNAVWEYYGKSDYWGQGTQVTVSS
  polyreactivity (PSR sort gate): low polyreactivity

## QVQLVESGGGLVQAGGSLRLSCAASGIIFQQYAMGWYRQAPGKERELVAAITYSGDGTYYADSVKGRFTISRDNAKNTVYLQMNSLKPEDTAVYYCAADVGYFKSDYWGQGTQVTVSS
  polyreactivity (PSR sort gate): low polyreactivity

## QVQLVESGGGLVQAGGSLRLSCAASGIIFQRNDMGWYRQAPGKERELVANIRDGGITYADSVKGRFTISRDNAKNTVYLQMNRLKPEDTAVYYCARDDTSPGYGDQSSNAAYYYWGQGTQVTVSS
  polyreactivity (PSR sort gate): low polyreactivity

## QVQLVESGGGLVQAGGSLRLSCAASGIIFQSYTMGWYRQAPGKERELVAAIDSGGSTYYADSVKGRFTISRDNAKNTVYLQMNSLKPEDTAVYYCAAEPDTYWYTYDYWGQGTQVTVSS
  polyreactivity (PSR sort gate): low polyreactivity

## QVQLVESGGGLVQAGGSLRLSCAASGIIFRANAMGWYRQAPGKERELVAAISRRGGSTYYADSVKGRFTISRDNAKNTVFLQMNSLKPEDTAVYYCAADGKNYPVGYDYWGQGTQVTVSS
  polyreactivity (PSR sort gate): high polyreactivity

## QVQLVESGGGLVQAGGSLRLSCAASGIIFRDNDMGWYRQAPGKERELVASISDSGGSTYYADSVKGRFTISRDNAKNTVYLQMNSLKPEDTAVYYCAAPYLSLYWYDYWGQGTQVTVSS
  polyreactivity (PSR sort gate): low polyreactivity
